In patent publication EP4803541A1 (Changchun Genescience Pharmaceutical Co., Ltd., dated 2026):

Legend:
[1] = target: rhGH protein (UniProt: P01241) (human) (UniProt P01241); assay: ELISA on coated rhGH, anti-6*His HRP; sample after 0.5M NaOH 24h, against WT; parameters: unit not given beside the values
[2] = target: T1, rhGH protein (UniProt: P01241) (human, UniProt P01241 27-217); assay: ELISA on coated rhGH; sample after 0.5M NaOH 24h
T1 construct: Coated at 5 ug/ml in the ELISA; also called human growth hormone
T1 sequence (P01241 27-217 limits assumed, one chain of several): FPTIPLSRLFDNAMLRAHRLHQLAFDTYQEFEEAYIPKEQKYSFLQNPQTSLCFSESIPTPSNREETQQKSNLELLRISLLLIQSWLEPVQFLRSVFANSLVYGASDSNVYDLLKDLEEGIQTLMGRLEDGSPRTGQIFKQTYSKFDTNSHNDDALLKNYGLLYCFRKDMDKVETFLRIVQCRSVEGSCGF

[3] = target: GH (GH stock solution) (UniProt P01241); assay: affinity chromatography, VHH-conjugated medium loaded with GH stock solution; medium in 0.1M NaOH 0h
Chain of GH (GH stock solution) (P01241 27-217 limits assumed): as the sequence (P01241 27-217 limits assumed, one chain of several) above

[4] = target: GH (GH stock solution) (UniProt P01241); assay: affinity chromatography, VHH-conjugated medium loaded with GH stock solution; medium in 0.5M NaOH 0h
[5] = target: GH (GH stock solution) (UniProt P01241); assay: affinity chromatography, VHH-conjugated medium loaded with GH stock solution; medium in 0.5M NaOH 6h
[6] = target: GH (GH stock solution) (UniProt P01241); assay: affinity chromatography, VHH-conjugated medium loaded with GH stock solution; medium in 0.1M NaOH 24h
[7] = target: GH (GH stock solution) (UniProt P01241); assay: affinity chromatography, VHH-conjugated medium loaded with GH stock solution; medium in 0.1M NaOH 32h
[8] = target: GH (GH stock solution) (UniProt P01241); assay: affinity chromatography, VHH-conjugated medium loaded with GH stock solution; medium in 0.5M NaOH 24h

Chain of rhGH protein (UniProt: P01241) (human) (UniProt P01241) (P01241 27-217 limits assumed, one chain of several): as above

Binder | EC50 against that of the WT after 0.5M alkali (% higher than WT) [1] | binding result [2] | further results
M11 (First round) (VHH) VHH: QVQLVESGGGLAQAGGSLRLSCAVSGMPEFARAMGWFRQAPGKERELLAAIEGIGATTYYADSVKGRFTISRDDAANTVLLQMNSLKPDDTAVYYCAAAFSVTIPTRARHWVDWGQGTLVTVSS | 50 | – | –
M34 (First round) (VHH) VHH: QVQLVESGGGLAQAGGSLRLSCAVSGMPEFARAMGWFRQAPGKERELLAAIEGIGATTYYADSVKGRFTISRDDAASTVLLQMNSLKPDDTAVYYCAAAFSVTIPTRARHWVDWGPGTLVTVSS | 50 | – | –
M22 (First round) (VHH) VHH: QVQLVESGGGKAQAGGSLRLSCAVSGMPEFARAMGWFRQAPGKERELLAAIEGIGATTYYADSVKGRFTISRDDAANTVLLQMNSLKPDDTAVYYCAAAFSVTIPTRARHWVDWGPGTLVTVSS | 50 | – | –
M33 (First round) (VHH) VHH: QVQLVESGGGLAQAGGSLRLSCAVSGMPEFARAMGWFRQAPGKERELLAAIEGIGDTTYYADSVKGRFTISRDDAANTVLLQMNSLKPDDTAVYYCAAAFSVTIPTRARHWVDWGPGTLVTVSS | 50 | – | –
M53 (Second round) (VHH, Entry already carries A57D; R100eE); tail DDDDK-SGGGGS-HHHHHH) VHH: QVQLVESGGGLAQAGGSLRLSCAVSGMPEFARAMGWFRQAPGKERELLAAIEGIGDTTYYADSVKGRFTISRDDAANTVLLQMNSLKPDDTAVYYCAAAFSVTIPTRAEHWVDWGPGTLVTVSS | – | binds | –
M24 (First round) (VHH) VHH: QVQLVESGGGLAQAGGSLRLSCAVSGMPEFARAMGWFRQAPGKERELLAAIEGIGATTYYADSVKGRFTISRDDAANTVLLQMNSLKPDDTAVYYCAAAFSVTIPTRARHFVDWGPGTLVTVSS | 50 | – | –
M45 (First round) (VHH) VHH: QVQLVESGGGLAQAGGSLRLSCAVSGMPEFARAMGWFRQAPGKERELLAAIEGIGATTYYADSVKGRFTISRDDAANTVLLQMNSLKPDDTAVYYCAAAFSVTIPTRARHWVDWGPGTLVTVSS | 50 | – | dynamic binding capacity at 10% breakthrough [3]: 18.2; dynamic binding capacity at 10% breakthrough [4]: 18.2; dynamic binding capacity at 10% breakthrough [5]: 7.6; dynamic binding capacity at 10% breakthrough [6]: 17.4; dynamic binding capacity at 10% breakthrough [7]: 16.2; dynamic binding capacity at 10% breakthrough [8]: 4.29
M28 (First round) (VHH) VHH: QVQLVESGGGLAQAGGSLTLSCAVSGMPEFARAMGWFRQAPGKERELLAAIEGIGATTYYADSVKGRFTISRDDAANTVLLQMNSLKPDDTAVYYCAAAFSVTIPTRARHWVDWGPGTLVTVSS | 50 | – | –
M88 (Second round) (VHH, Entry already carries A57D; G134R; R110E; A55D; R100eE); tail DDDDK-SGGRGS-HHHHHH) VHH: QVQLVESGGGLAQAGGSLRLSCAVSGMPEFARAMGWFRQAPGKERELVAAIEGIGDTTYYADSVKGRFTISRDDAANTVLLQMNSLKPDDTAVYYCAAAFSVTIPTRAEHWVDWGPGTLVTVSS | – | binds | –
M83 (Second round) (VHH, Entry already carries A57D; P117Q; R110E; R100eE; W100gF; P105Q); tail DDDDK-SGGGGS-HHHHHH) VHH: QVQLVESGGGLAQAGGSLRLSCAVSGMPEFARAMGWFRQAPGKERELLAAIEGIGDTTYYADSVKGRFTISRDDAANTVLLQMNSLKPDDTAVYYCAAAFSVTIPTRAEHFVDWGQGTLVTVSS | – | binds | –
M77 (Second round) (VHH, Entry already carries A57D; R110E; R100eE; W100gF); tail DDDDK-SGGGGS-HHHHHH) VHH: QVQLVESGGGLAQAGGSLRLSCAVSGMPEFARAMGWFRQAPGKERELLAAIEGIGDTTYYADSVKGRFTISRDDAANTVLLQMNSLKPDDTAVYYCAAAFSVTIPTRAEHFVDWGPGTLVTVSS | – | binds | –
M70 (Second round) (VHH, Entry already carries A15P; R100eE); tail DDDDK-SGGGGS-HHHHHH) VHH: QVQLVESGGGLAQPGGSLRLSCAVSGMPEFARAMGWFRQAPGKERELLAAIEGIGATTYYADSVKGRFTISRDDAANTVLLQMNSLKPDDTAVYYCAAAFSVTIPTRAEHWVDWGPGTLVTVSS | – | binds | –
M76 (Second round) (VHH, Entry already carries A57D; G134R; W100gF); tail DDDDK-SGGRGS-HHHHHH) VHH: QVQLVESGGGLAQAGGSLRLSCAVSGMPEFARAMGWFRQAPGKERELLAAIEGIGDTTYYADSVKGRFTISRDDAANTVLLQMNSLKPDDTAVYYCAAAFSVTIPTRARHFVDWGPGTLVTVSS | – | binds | –
M67 (Second round) (VHH, Entry already carries A15P; P105Q); tail DDDDK-SGGGGS-HHHHHH) VHH: QVQLVESGGGLAQPGGSLRLSCAVSGMPEFARAMGWFRQAPGKERELLAAIEGIGATTYYADSVKGRFTISRDDAANTVLLQMNSLKPDDTAVYYCAAAFSVTIPTRARHWVDWGQGTLVTVSS | – | binds | dynamic binding capacity at 10% breakthrough [3]: 15.9; dynamic binding capacity at 10% breakthrough [4]: 15.9; dynamic binding capacity at 10% breakthrough [5]: 10.2; dynamic binding capacity at 10% breakthrough [6]: 16.2; dynamic binding capacity at 10% breakthrough [7]: 14.9; dynamic binding capacity at 10% breakthrough [8]: 4.23
M69 (Second round) (VHH, Entry already carries P29T; tail DDDDK-SGGRGS-HHHHHH) VHH: QVQLVESGGGLAQAGGSLRLSCAVSGMTEFARAMGWFRQAPGKERELLAAIEGIGATTYYADSVKGRFTISRDDAANTVLLQMNSLKPDDTAVYYCAAAFSVTIPTRARHWVDWGPGTLVTVSS | 50 | binds | –
M81 (Second round) (VHH, Entry already carries A57D; G134R; P117Q; R100eE; P105Q); tail DDDDK-SGGRGS-HHHHHH) VHH: QVQLVESGGGLAQAGGSLRLSCAVSGMPEFARAMGWFRQAPGKERELLAAIEGIGDTTYYADSVKGRFTISRDDAANTVLLQMNSLKPDDTAVYYCAAAFSVTIPTRAEHWVDWGQGTLVTVSS | – | binds | –
M75 (Second round) (VHH, Entry already carries A57D; R110E; R100eE; D102Y); tail DDDDK-SGGGGS-HHHHHH) VHH: QVQLVESGGGLAQAGGSLRLSCAVSGMPEFARAMGWFRQAPGKERELLAAIEGIGDTTYYADSVKGRFTISRDDAANTVLLQMNSLKPDDTAVYYCAAAFSVTIPTRAEHWVYWGPGTLVTVSS | – | binds | –
M66 (Second round) (VHH, Entry already carries P29T; P28T); tail DDDDK-SGGGGS-HHHHHH) VHH: QVQLVESGGGLAQPGGSLRLSCAVSGMTEFARAMGWFRQAPGKERELLAAIEGIGATTYYADSVKGRFTISRDDAANTVLLQMNSLKPDDTAVYYCAAAFSVTIPTRARHWVDWGPGTLVTVSS | – | binds | –
M72 (Second round) (VHH, Entry already carries A57D; D114Y; W100gF; D102Y); tail DDDDK-SGGGGS-HHHHHH) VHH: QVQLVESGGGLAQAGGSLRLSCAVSGMPEFARAMGWFRQAPGKERELLAAIEGIGDTTYYADSVKGRFTISRDDAANTVLLQMNSLKPDDTAVYYCAAAFSVTIPTRARHFVYWGPGTLVTVSS | – | binds | –
M79 (Second round) (VHH, Entry already carries A57D; R110E; A55D; R100eE); tail DDDDK-SGGGGS-HHHHHH) VHH: QVQLVESGGGLAQAGGSLRLSCAVSGMPEFARAMGWFRQAPGKERELVAAIEGIGDTTYYADSVKGRFTISRDDAANTVLLQMNSLKPDDTAVYYCAAAFSVTIPTRAEHWVDWGPGTLVTVSS | – | binds | –
M82 (Second round) (VHH, Entry already carries A57D; G134R; R110E; R100eE; D102Y); tail DDDDK-SGGRGS-HHHHHH) VHH: QVQLVESGGGLAQAGGSLRLSCAVSGMPEFARAMGWFRQAPGKERELLAAIEGIGDTTYYADSVKGRFTISRDDAANTVLLQMNSLKPDDTAVYYCAAAFSVTIPTRAEHWVYWGPGTLVTVSS | – | binds | –
M64 (Second round) (VHH, Entry already carries A15P; tail DDDDK-SGGRGS-HHHHHH) VHH: QVQLVESGGGLAQPGGSLRLSCAVSGMPEFARAMGWFRQAPGKERELLAAIEGIGATTYYADSVKGRFTISRDDAANTVLLQMNSLKPDDTAVYYCAAAFSVTIPTRARHWVDWGPGTLVTVSS | 50 | binds | –
M71 (Second round) (VHH, Entry already carries A57D; P117Q; R100eE; P105Q); tail DDDDK-SGGGGS-HHHHHH) VHH: QVQLVESGGGLAQAGGSLRLSCAVSGMPEFARAMGWFRQAPGKERELLAAIEGIGDTTYYADSVKGRFTISRDDAANTVLLQMNSLKPDDTAVYYCAAAFSVTIPTRAEHWVDWGQGTLVTVSS | – | binds | –
M59 (Second round) (VHH, Entry already carries A57D; A55D); tail DDDDK-SGGGGS-HHHHHH) VHH: QVQLVESGGGLAQAGGSLRLSCAVSGMTEFARAMGWFRQAPGKERELLAAIEGIGDTTYYADSVKGRFTISRDDAANTVLLQMNSLKPDDTAVYYCAAAFSVTIPTRARHWVDWGPGTLVTVSS | – | binds | –
M68 (Second round) (VHH, Entry already carries A15P; R19T); tail DDDDK-SGGGGS-HHHHHH) VHH: QVQLVESGGGLAQPGGSLTLSCAVSGMPEFARAMGWFRQAPGKERELLAAIEGIGATTYYADSVKGRFTISRDDAANTVLLQMNSLKPDDTAVYYCAAAFSVTIPTRARHWVDWGPGTLVTVSS | – | binds | dynamic binding capacity at 10% breakthrough [3]: 15.9; dynamic binding capacity at 10% breakthrough [4]: 15.3; dynamic binding capacity at 10% breakthrough [5]: 12.2; dynamic binding capacity at 10% breakthrough [6]: 16.2; dynamic binding capacity at 10% breakthrough [7]: 15.4; dynamic binding capacity at 10% breakthrough [8]: 5.41
M89 (Second round) (VHH, Entry already carries A57D; G134R; R110E; R100eE; W100gF); tail DDDDK-SGGRGS-HHHHHH) VHH: QVQLVESGGGLAQAGGSLRLSCAVSGMPEFARAMGWFRQAPGKERELLAAIEGIGDTTYYADSVKGRFTISRDDAANTVLLQMNSLKPDDTAVYYCAAAFSVTIPTRAEHFVDWGPGTLVTVSS | – | binds | –
